Assay results taken from patent US20030170230A1 (published 2003).

Biological target: tetanus toxoid (UniProt P04958 2-1315)
Test: ELISA

B1: Sample C: protein from vectors pG31020, pG31030 and pG31027, consisting of FvL-AHECa, FvH-AHECb and ubiquitin-AHECc with a disulfide bridge between AHECa and … (other)
VL: MDIVMTQSQKFMSTSVGDRVSVTCKASQNVGASVAWYQQKPGQSPKILIYSASYRYSGVPDRFTGSGSGTDFTLTISNVQSEDLAEYFCQQYNGYPLTFGAGTKLELRTSDSLRLQQLFRDCEDEETWIREKEPIAASTAMDIGINSDPNSSSVDKLAAALEHHHHHH
VH: MGSGIEGRMASEVQLQQSGPELVKPGASVKMSCKASGYTFTNYIMYWVTQRPGQGLEWIGYIHPYNDDTKYNEKFKDKATLTSDRSSRTAYMELSSLTSEDSAVYYCARKKANFGYGPWFAYWGQGTLVTVSARTKHQALQAEIAGHEPRIKACTQKGNAMVEESLEHHHHHH
chain: not shown
Ka: 4.3e+08 M⁻¹
